From the supplement of paper PMC11246515
± gives the standard deviation of the averaged measurements.

Test: total protein half-life in vivo (active degradation + dilution); higher = more stable protein
[1] = E. coli NCM3722 delta-clpP delta-lon delta-hslV, growth: N-lim chemostat, doubling time 6 h
[2] = E. coli NCM3722 delta-clpP, growth: N-lim chemostat, doubling time 6 h
[3] = E. coli NCM3722 delta-hslV, growth: N-lim chemostat, doubling time 6 h
[4] = E. coli NCM3722 delta-smpB, growth: N-lim chemostat, doubling time 6 h
[5] = wild type E. coli NCM3722, growth: C-lim chemostat, doubling time 3 h
[6] = wild type E. coli NCM3722, growth: C-lim chemostat, doubling time 12 h
[7] = wild type E. coli NCM3722, growth: N-lim chemostat, doubling time 12 h
[8] = wild type E. coli NCM3722, growth: P-lim chemostat, doubling time 6 h
[9] = wild type E. coli NCM3722, growth: P-lim chemostat, doubling time 12 h
[10] = E. coli NCM3722 delta-lon, growth: N-lim chemostat, doubling time 6 h
[11] = wild type E. coli NCM3722, growth: C-lim chemostat, doubling time 6 h
[12] = wild type E. coli NCM3722, growth: N-lim chemostat, doubling time 6 h

With “MNLLKSLAAVSSMTMFSRVLGFARDAIVARIFGAGMATDAFFVAFKLPNLLRRIFAEGAFSQAFVPILAEYKSKQGEDATRVFVSYVSGLLTLALAVVTVAGMLAAPWVIMVTAPGFADTADKFALTSQLLKITFPYILLISLASLVGAILNTWNRFSIPAFAPTLLNISMIGFALFAAPYFNPPVLALAWAVTVGGVLQLVYQLPHLKKIGMLVLPRINFHDAGAMRVVKQMGPAILGVSVSQISLIINTIFASFLASGSVSWMYYADRLMEFPSGVLGVALGTILLPSLSKSFASGNHDEYNRLMDWGLRLCFLLALPSAVALGILSGPLTVSLFQYGKFTAFDALMTQRALIAYSVGLIGLIVVKVLAPGFYSRQDIKTPVKIAIVTLILTQLMNLAFIGPLKHAGLSLSIGLAACLNASLLYWQLRKQKIFTPQPGWMAFLLRLVVAVLVMSGVLLGMLHIMPEWSLGTMPWRLLRLMAVVLAGIAAYFAALAVLGFKVKEFARRTV [P0AF16]” the “total protein half-life in vivo” value [1] was 6.51 ± 0.41 h, the “total protein half-life in vivo” value [2] was 5.82 ± 0.39 h and the “total protein half-life in vivo” value [3] was 5.87 h. The “total protein half-life in vivo” value [4] was 6.21 ± 0.26 h, the “total protein half-life in vivo” value [5] was 3.36 h and the “total protein half-life in vivo” value [6] was 9.84 h. For the same sequence, the “total protein half-life in vivo” value [7] was 8.94 ± 1.4 h, the “total protein half-life in vivo” value [8] was 5.63 ± 0.54 h and the “total protein half-life in vivo” value [9] was 10.6 ± 0.34 h.

For “MNLQHHFLIAMPALQDPIFRRSVVYICEHNTNGAMGIIVNKPLENLKIEGILEKLKITPEPRDESIRLDKPVMLGGPLAEDRGFILHTPPSNFASSIRISDNTVMTTSRDVLETLGTDKQPSDVLVALGYASWEKGQLEQEILDNAWLTAPADLNILFKTPIADRWREAAKLIGVDILTMPGVAGHA [P0A8W5]”, the “total protein half-life in vivo” value [1] was 4.47 ± 0.45 h, the “total protein half-life in vivo” value [2] was 5.88 ± 1.8 h and the “total protein half-life in vivo” value [3] was 4.32 ± 0.34 h. For the same sequence, the “total protein half-life in vivo” value [10] was 2.88 ± 0.18 h, the “total protein half-life in vivo” value [4] was 4.027 ± 0.034 h and the “total protein half-life in vivo” value [5] was 2.93 ± 0.32 h. For the same sequence, the “total protein half-life in vivo” value [11] was 5.38 ± 0.81 h, the “total protein half-life in vivo” value [6] was 8.21 ± 0.33 h and the “total protein half-life in vivo” value [12] was 4.39 ± 0.34 h. For the same sequence, the “total protein half-life in vivo” value [7] was 6.81 ± 0.54 h, the “total protein half-life in vivo” value [8] was 5.075 ± 0.018 h and the “total protein half-life in vivo” value [9] was 10.2 ± 2.2 h.

For “MNLSLRRSTSALLASSLLLTIGRGATLPFMTIYLSRQYSLSVDLIGYAMTIALTIGVVFSLGFGILADKFDKKRYMLLAITAFASGFIAITLVNNVTLVVLFFALINCAYSVFATVLKAWFADNLSSTSKTKIFSINYTMLNIGWTIGPPLGTLLVMQSINLPFWLAAICSAFPMLFIQIWVKRSEKIIATETGSVWSPKVLLQDKALLWFTCSGFLASFVSGAFASCISQYVMVIADGDFAEKVVAVVLPVNAAMVVTLQYSVGRRLNPANIRALMTAGTLCFVIGLVGFIFSGNSLLLWGMSAAVFTVGEIIYAPGEYMLIDHIAPPEMKASYFSAQSLGWLGAAINPLVSGVVLTSLPPSSLFVILALVIIAAWVLMLKGIRARPWGQPALC”, the “total protein half-life in vivo” value [5] was 1.77 h.

In the case of “MNLSTKQKQHLKGLAHPLKPVVLLGSNGLTEGVLAEIEQALEHHELIKVKIATEDRETKTLIVEAIVRETGACNVQVIGKTLVLYRPTKERKISLPR [P0AGK4]”, the “total protein half-life in vivo” value [1] is reported as 7 ± 0.84 h, the “total protein half-life in vivo” value [2] is reported as 5.91 ± 0.59 h and the “total protein half-life in vivo” value [3] is reported as 6.12 ± 0.24 h. For the same sequence, the “total protein half-life in vivo” value [10] was 6.47 ± 0.075 h, the “total protein half-life in vivo” value [4] was 5.7 ± 0.41 h and the “total protein half-life in vivo” value [5] was 3.11 ± 0.53 h. For the same sequence, the “total protein half-life in vivo” value [11] was 5.73 ± 0.12 h, the “total protein half-life in vivo” value [6] was 9.46 ± 1.2 h and the “total protein half-life in vivo” value [12] was 4.83 ± 0.25 h. The “total protein half-life in vivo” value [7] was 10.8 ± 2.1 h, the “total protein half-life in vivo” value [8] was 4.88 ± 1.1 h and the “total protein half-life in vivo” value [9] was 12.6 ± 3 h.

With “MNLTLTRRLWMGFALMALLTLTSTLVGWYNLRFISQVEKDNTQALIPTMNMARQLSEASAWELFAAQNLTSADNEKMWQAQGRMLTAQSLKINALLQALREQGFDTTAIEQQEQEISRSLRQQGELVGQRLQLRQQQQQLSQQIVAAADEIARLAQGQANNATTSAGATQAGIYDLIEQDQRQAAESALDRLIDIDLEYVNQMNELRLSALRVQQMVMNLGLEQIQKNAPTLEKQLNNAVKILQRRQIRIEDPGVRAQVATTLTTVSQYSDLLALYQQDSEISNHLQTLAQNNIAQFAQFSSEVSQLVDTIELRNQHGLAHLEKASARGQYSLLLLGMVSLCALILILWRVVYRSVTRPLAEQTQALQRLLDGDIDSPFPETAGVRELDTIGRLMDAFRSNVHALNRHREQLAAQVKARTAELQELVIEHRQARAEAEKASQAKSAFLAAMSHEIRTPLYGILGTAQLLADNPALNAQRDDLRAITDSGESLLTILNDILDYSAIEAGGKNVSVSDEPFEPRPLLESTLQLMSGRVKGRPIRLATAIADDMPCALMGDPRRIRQVITNLLSNALRFTDEGYIILRSRTDGEQWLVEVEDSGCGIDPAKLAEIFQPFVQVSGKRGGTGLGLTISSRLAQAMGGELSATSTPEVGSCFCLRLPLRVATAPVPKTVNQAVRLDGLRLLLIEDNPLTQRITIEMLKTSGAQIVAVGNAAQALETLQNSEPFAAALVDFDLPDIDGITLARQLAQQYPSLVLIGFSAHVIDETLRQRTSSLFRGIIPKPVPREVLGQLLAHYLQLQVNNDQSLDVSQLNEDAQLMGTEKIHEWLVLFTQHALPLLDEIDIARASQDSEKIKRAAHQLKSSCSSLGMHIASQLCAQLEQQPLSAPLPHEEITRSVAALEAWLHKKDLNAI” the “total protein half-life in vivo” value [1] was 3.75 h, the “total protein half-life in vivo” value [2] was 4.08 h and the “total protein half-life in vivo” value [10] was 4.54 ± 0.12 h. For the same sequence, the “total protein half-life in vivo” value [4] was 4.12 ± 0.42 h, the “total protein half-life in vivo” value [5] was 2.81 h and the “total protein half-life in vivo” value [6] was 6.76 h. For the same sequence, the “total protein half-life in vivo” value [12] was 5.462 ± 0.037 h, the “total protein half-life in vivo” value [7] was over 16 h and the “total protein half-life in vivo” value [8] was 6.79 ± 1.1 h. The “total protein half-life in vivo” value [9] was 10.3 ± 0.94 h.

In the case of “MNLWQQNYDPAGNIWLSSLIASLPILFFFFALIKLKLKGYVAASWTVAIALAVALLFYKMPVANALASVVYGFFYGLWPIAWIIIAAVFVYKISVKTGQFDIIRSSILSITPDQRLQMLIVGFCFGAFLEGAAGFGAPVAITAALLVGLGFKPLYAAGLCLIVNTAPVAFGAMGIPILVAGQVTGIDSFEIGQMVGRQLPFMTIIVLFWIMAIMDGWRGIKETWPAVVVAGGSFAIAQYLSSNFIGPELPDIISSLVSLLCLTLFLKRWQPVRVFRFGDLGASQVDMTLAHTGYTAGQVLRAWTPFLFLTATVTLWSIPPFKALFASGGALYEWVINIPVPYLDKLVARMPPVVSEATAYAAVFKFDWFSATGTAILFAALLSIVWLKMKPSDAISTFGSTLKELALPIYSIGMVLAFAFISNYSGLSSTLALALAHTGHAFTFFSPFLGWLGVFLTGSDTSSNALFAALQATAAQQIGVSDLLLVAANTTGGVTGKMISPQSIAIACAAVGLVGKESDLFRFTVKHSLIFTCIVGVITTLQAYVLTWMIP”, the “total protein half-life in vivo” value [5] is reported as 1.79 h, the “total protein half-life in vivo” value [11] is reported as 1.93 h and the “total protein half-life in vivo” value [6] is reported as 2.6 ± 0.12 h.

In the case of “MNMKKLATLVSAVALSATVSANAMAKDTIALVVSTLNNPFFVSLKDGAQKEADKLGYNLVVLDSQNNPAKELANVQDLTVRGTKILLINPTDSDAVGNAVKMANQANIPVITLDRQATKGEVVSHIASDNVLGGKIAGDYIAKKAGEGAKVIELQGIAGTSAARERGEGFQQAVAAHKFNVLASQPADFDRIKGLNVMQNLLTAHPDVQAVFAQNDEMALGALRALQTAGKSDVMVVGFDGTPDGEKAVNDGKLAATIAQLPDQIGAKGVETADKVLKGEKVQAKYPVDLKLVVKQ”, the “total protein half-life in vivo” value [1] is reported as 3.56 ± 0.29 h, the “total protein half-life in vivo” value [2] is reported as 5.92 ± 0.94 h and the “total protein half-life in vivo” value [10] is reported as 6.39 ± 0.68 h. For the same sequence, the “total protein half-life in vivo” value [4] was 6.26 ± 0.56 h, the “total protein half-life in vivo” value [5] was 3.27 ± 0.035 h and the “total protein half-life in vivo” value [11] was 6.14 ± 1.1 h. For the same sequence, the “total protein half-life in vivo” value [6] was 9.24 ± 0.57 h, the “total protein half-life in vivo” value [12] was 6.13 ± 0.6 h and the “total protein half-life in vivo” value [7] was 10.9 ± 0.88 h. The “total protein half-life in vivo” value [8] was 6.05 ± 0.068 h and the “total protein half-life in vivo” value [9] was 11.5 ± 0.92 h.
